# Experimental data taken from patent US20100098630A1, “Phenazine and Quinoxaline Substituted Amino Acids and Polypeptides” (AMBRX, INC., priority 2006, published 2010).
# Biological target: T1, GH receptor-producing cells (Homo sapiens, UniProt P10912)
# T1 sequence (P10912 19-638): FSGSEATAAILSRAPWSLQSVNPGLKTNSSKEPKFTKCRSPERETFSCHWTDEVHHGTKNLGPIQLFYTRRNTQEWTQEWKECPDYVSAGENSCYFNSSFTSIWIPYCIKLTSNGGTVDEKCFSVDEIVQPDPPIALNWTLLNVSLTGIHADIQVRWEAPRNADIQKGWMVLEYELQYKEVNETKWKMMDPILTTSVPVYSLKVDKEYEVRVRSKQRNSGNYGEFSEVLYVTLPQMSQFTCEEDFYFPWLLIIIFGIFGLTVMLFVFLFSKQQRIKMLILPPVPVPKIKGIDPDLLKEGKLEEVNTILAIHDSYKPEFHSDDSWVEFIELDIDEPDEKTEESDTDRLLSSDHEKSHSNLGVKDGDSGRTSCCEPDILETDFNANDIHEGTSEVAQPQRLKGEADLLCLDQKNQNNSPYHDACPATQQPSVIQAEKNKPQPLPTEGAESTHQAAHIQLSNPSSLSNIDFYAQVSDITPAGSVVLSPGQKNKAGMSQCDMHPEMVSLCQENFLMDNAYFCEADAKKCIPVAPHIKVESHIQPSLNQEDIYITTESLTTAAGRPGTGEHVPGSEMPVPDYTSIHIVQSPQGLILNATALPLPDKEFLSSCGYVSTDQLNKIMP
# Experiment: Cell binding assays (competition with 125I-GH)
# Settings: unlabeled competitor, 0° C., 90 minutes
# Procedure: Cells are then resuspended and layered over 200 μl ice cold FCS in a 350 μl plastic centrifuge tube and centrifuged (1000 g; […]). The pellet is collected by cutting off the end of the tube and pellet and supernatant counted separately in a gamma counter (Packard).
# Specific binding (cpm) is determined as total binding in the absence of a competitor (mean of duplicates) minus binding (cpm) in the presence of 100-fold excess of unlabeled GH (non-specific binding). The non-specific binding is measured for each of the cell types used.
substance,measurement,value
"GM-CSF: granulocyte-macrophage colony stimulating factor, negative control",inhibition of 125I-GH binding,not
